# Measurements as given in patent publication US9567641B2, “Combination therapy for the treatment of cancer using an anti-C-met antibody” (SAMSUNG ELECTRONICS CO., LTD., priority 2013, dated 2017).
# B1: L3-1Y/IgG2: anti-c-Met antibody: huAbF46-H4-A1 heavy chain variable region, human IgG2 hinge and constant region, kappa light chain with H36Y (antibody)
# heavy: EVQLVESGGGLVQPGGSLRLSCAASGFTFTDYYMSWVRQAPGKGLEWLGFIRNKANGYTTEYSASVKGRFTISRDNSKNTLYLQMNSLRAEDTAVYYCARDNWFAYWGQGTLVTVSSASTKGPSVFPLAPCSRSTSESTAALGCLVKDYFPEPVTVSWNSGALTSGVHTFPAVLQSSGLYSLSSVVTVPSSNFGTQTYTCNVDHKPSNTKVDKTVERKCCVECPPCPAPPVAGPSVFLFPPKPKDTLMISRTPEVTCVVVDVSHEDPEVQFNWYVDGVEVHNAKTKPREEQFNSTFRVVSVLTVVHQDWLNGKEYKCKVSNKGLPAPIEKTISKTKGQPREPQVYTLPPSREEMTKNQVSLTCLVKGFYPSDIAVEWESNGQPENNYKTTPPMLDSDGSFFLYSKLTVDKSRWQQGNVFSCSVMHEALHNHYTQKSLSLSPGK
# light: DIQMTQSPSSLSASVGDRVTITCKSSQSLLASGNQNNYLAWYQQKPGKAPKMLIIWASTRVSGVPSRFSGSGSGTDFTLTISSLQPEDFATYYCQQSYSRPYTFGQGTKVEIKRTVAAPSVFIFPPSDEQLKSGTASVVCLLNNFYPREAKVQWKVDNALQSGNSQESVTEQDSKDSTYSLSSTLTLSKADYEKHKVYACEVTHQGLSSPVTKSFNRGEC
# Experiments:
# Assay type in all cases: cell-based
# [1] = test system: EBC1 lung cancer cell line; test: Cell viability, CellTiter Blue, combination with L3-1Y/IgG2 antibody; details: for concentration at which the L3-1Y/IgG2 antibody showed the maximized efficacy: 5 days
# Experimental: The efficacy of the combination administration of RAF1 siRNA and L3-1Y/IgG2 antibody was examined in lung cancer cell line on which the anti-c-Met antibody has an effect. For this, EBC1 (JCRB, JCRB0820) cells were used. As a control group, All Negative control siRNA (Qiagen, cat. no. 1027281) was used, and as a target siRNA, a mixture of two kinds of siRNAs (see Table 7) that had effects during the screening was used. Transfection was carried out by the same procedures as Example 3.1 and after 24 hours, the cultured cells were treated with L3-1Y/IgG2 antibody at 0 ug/ml, 0.016 ug/ml, 0.08 ug/ml, 0.4 ug/ml, or 2 ug/ml. After 5 days of treatment, for cell number counting, 20 ul of a diluting solution of CellTiter Blue (Promega, G8081) and HBSS at 1:1 was added to each well, which was incubated at 37° C. for 4 hours. Then, the number of cells was counted via fluorescence signals (560/590 nm), which were measured using Envision 2104 Multi-label Reader (Perkin Elmer).
# [2] = test system: MKN45 gastric cancer cell line with acquired resistance against L3-1Y/IgG2 antibody; test: Cell viability, CellTiter Glo, resistance-acquired cell line
# Experimental: To see whether the treatment RAF1 siRNA can overcome resistance acquired due to the repetitive treatment of an antibody, tests were carried out using MKN45 gastric cancer cell line which had been treated by L3-1Y/IgG2 antibody for 3 months or longer and acquired resistance against it. The resistance-acquired MKN45 gastric cancer cell line was prepared as follows: MKN45 cells (JCRB, JCRB0254) were treated with L3-1Y/IgG2 antibody in amounts being increased over 3 months or longer. The amount of L3-1Y/IgG2 antibody to be treated started from its initial treatment concentration of 1 ug/ml and was increased up to 10 ug/ml until resistance occurred. To confirm the acquisition of L3-1Y/IgG2 antibody resistance, the resistance-acquired clones were treated or not treated with L3-1Y/IgG2 antibody and then incubated, followed by CTG assays.
# As a control group, All Negative control siRNA (Qiagen, cat. no. 1027281) was used, and as a target siRNA, a mixture of two kinds of siRNAs (see Table 7) that had effects during the screening was used. […]
# (§1) 5000 cells of MKN45 cells which have acquired resistance against L3-1Y/IgG2 antibody were seeded onto a 96-well plate, and 24 hours after, the plate was treated with L3-1Y/IgG2 antibody and an ITGB3 inhibitor, cilengitide (Merck KGaA, EMD 121974). 72 hours later after the treatment, a change in the number of cells was measured using CellTiter Glo assay. The MKN45 cells which have acquired resistance against L3-1Y/IgG2 antibody were prepared referring to Example 4.3. Cilengitide was treated at a fixed concentration of 10 uM, and the L3-1Y/IgG2 antibody was treated by ⅕ dilution each time starting from 2 ug/ml. For comparison, the same test was conducted using L3-1Y/IgG2 antibody alone.
# as §1, with “AKT” for “ITGB3”, “MK-2206” for “cilengitide”, “& Co Inc).” for “KGaA, EMD 121974).”, “MK-2206” for “Cilengitide”, “5” for “10”
# To verify whether or not the resistance acquired by repetitive administration of anti-c-Met antibody can be overcome by BCL2L1 inhibition, L3-1Y/IgG2 antibody resistance acquired MKN45 cells, where the resistance against L3-1Y/IgG2 antibody is acquired by treating MKN45 gastric cancer cells (JCRB, JCRB0254) with the L3-1Y/IgG2 antibody for at least 3 months, were used. The L3-1Y/IgG2 antibody resistance acquired MKN45 gastric cancer cells were prepared referring to Example 4.3. […]
# [3] = test system: HCC1954 breast cancer cells; test: Cell viability, CellTiter Glo, combination with L3-1Y/IgG2 antibody; details: L3-1Y/IgG2 antibody alone (negative control siRNA)
# Experimental: The efficacy of the combination administration of ITGB3 siRNA and L3-1Y/IgG2 antibody was examined in a breast cancer cell line on which the anti-c-Met antibody alone has no effects. For this, HCC1806 (ATCC, CRL-2335) and HCC1954 (ATCC, CRL-2338) cells were used.
# As a control group, All Negative control siRNA (Qiagen, cat. no. 1027281) was used, and as a target siRNA, a mixture of two kinds of siRNAs (see Table 7) that had effects during the screening was used. Transfection was carried out by the same procedures as Example 3.1 and after 24 hours, the cultured cells were treated with L3-1Y/IgG2 antibody at 0 ug/ml, 0.016 ug/ml, 0.08 ug/ml, 0.4 ug/ml, or 2 ug/ml. 72 hours later after the treatment, 100 uL of CellTiter Glo solution (Promega, G7572) was added to each well, which was allowed to stay at a room temperature for 30 min. The number of cells was counted via luminescence signals, which were recorded using Envision 2104 Multi-label Reader (Perkin Elmer).
# [4] = test system: L3-1Y/IgG2 antibody resistance acquired EBC1 lung cancer cells; test: Cell viability, CellTiter Glo, resistance-acquired cell line; details: L3-1Y/IgG2 antibody alone
# Experimental: To verify whether or not the resistance acquired by repetitive administration of anti-c-Met antibody can be overcome by BCL2L1 inhibition, L3-1Y/IgG2 antibody resistance acquired EBC1 cells, where the resistance against L3-1Y/IgG2 antibody is acquired by treating EBC1 lung cancer cells (JCRB, JCRB0820) with the L3-1Y/IgG2 antibody for at least 3 months, were used. The L3-1Y/IgG2 antibody resistance acquired EBC1 lung cancer cells were prepared referring to Example 4.3.
# 5000 cells of the L3-1Y/IgG2 antibody resistance acquired EBC1 cells were seeded onto a 96-well plate and 24 hours after, the plate was treated with a BCL2 family inhibitor, ABT-263 (Abbott Laboratories) and 72 hours later after the antibody treatment, a change in the number of cells was measured using CellTiter Glo assay. ABT-263 was treated at a fixed concentration of 0.5 uM, and the L3-1Y/IgG2 antibody was treated by ⅕ dilution each time starting from 2 ug/ml.
molecule,measurement,setting,value
B1,concentration at which the L3-1Y/IgG2 antibody showed the maximized efficacy,[1]; co-treated with RAF1 siRNA,0.016 µg/mL
same,decrease of the concentration of maximized efficacy by RAF1 siRNA co-treatment,[1]; with versus without RAF1 siRNA,⅕
same,concentration at which the L3-1Y/IgG2 antibody showed the maximized efficacy,[1]; without RAF1 siRNA (negative control siRNA),0.08 µg/mL
same,growth inhibitory effect (cell viability),"[2]; L3-1Y/IgG2 antibody alone (1/5 dilutions from 2 ug/ml), 72 h",did not occur
same,cancer cell growth inhibitory efficacy (cell viability),[2]; L3-1Y/IgG2 antibody alone (negative control siRNA),did not occur
same,cancer cell growth inhibitory efficacy (cell viability),[3],did not occur
same,cancer cell growth inhibitory effect (cell viability),[4],did not occur
